Test results as given in US20120003180A1 (TEXAS A AND M UNIVERSITY SYSTEM, published 2012).

Legend:
[1] = molecular target: T1, α5β1 integrin protein, covalently immobilised on the optical biosensor cuvette; experiment: optical biosensor (IAsys), α5β1 immobilised, DV free in solution
T1 construct: The methods call the immobilised protein 'the α5β1 protein' and also 'immobilized α5'; The results speak of α5β1 integrin; also called α5β1 protein; immobilized α5 integrin
Procedure: (§1) Binding assays were carried out using an optical biosensor (IAsys; Affinity Sensors, UK) as described¹⁰⁸. In brief, to covalently bind the α5β1 protein, designated as an acceptor, onto the surfaces of a sensor, carboxylate groups present on the surface were activated by injection of a 1:1 mixture of 0.1 M N-hydroxysuccinimide and 0.4 M N-Ethyl-3-(3-dimethylaminopropyl) carbodiimide (Pierce). The acceptor dissolved in phosphate buffered saline (PBS) was then allowed to bind to the activated surface until a response plateau was reached. The residual active groups were blocked by an injection of 100 μL of 1 M Tris-HCl (pH 8.5).
(§2) The binding of DV to α5β1 was also investigated. DV's DGR sequence was mutated to AGR (D3904A) to determine whether this could disrupt DV binding to α5β1 as measured with optical biosensor (FIG. 18A).

[2] = molecular target: T1, α5β1 integrin protein, covalently …; experiment: optical biosensor (IAsys), α5β1 immobilised, DV free in solution; Kd from Koff/Kon
Procedure: as §1, §2

B1: Human perlecan Domain V (DV), recombinant, with C-terminal 6×His tag (ligand)
chain: EIKITFRPDSADGMLLYNGQKRVPGSPTNLANRQPDFISFGLVGGRPEFRFDAGSGMATIRHPTPLALGHFHTVTLLRSLTQGSLIVGDLAPVNGTSQGKFQGLDLNEELYLGGYPDYGAIPKAGLSSGFIGCVRELRIQGEEIVFHDLNLTAHGISHCPTCRDRPCQNGGQCHDSESSSYVCVCPAGFTGSRCEHSQALHCHPEACGPDATCVNRPDGRGYTCRCHLGRSGLRCEEGVTVTTPSLSGAGSYLALPALTNTHHELRLDVEFKPLAPDGVLLFSGGKSGPVEDFVSLAMVGGHLEFRYELGSGLAVLRSAEPLALGRWHRVSAERLNKDGSLRVNGGRPVLRSSPGKSQGLNLHTLLYLGGVEPSVPLSPATNMSAHFRGCVGEVSVNGKRLDLTYSFLGSQGIGQCYDSSPCERQPCQHGATCMPAGEYEFQCLCRDGFKGDLCEHEENPCQLREPCLHGGTCQGTRCLCLPGFSGPRCQQGSGHGIAESDWHLEGSGGNDAPGQYGAYFHDDGFLAFPGHVFSRSLPEVPETIELEVRTSTASGLLLWQGVEVGEAGQGKDFISLGLQDGHLVFRYQLGSGEARLVSEDPINDGEWHRVTALREGRRGSIQVDGEELVSGRSPGPNVAVNAKGSVYIGGAPDVATLTGGRFSSGITGCVKNLVLHSARPGAPPPQPLDLQHRAQAGANTRPCPSHHHHHH
notes: Cloned from HUVEC cDNA into pSecTag2A or pCepPu, secreted from 293 cells and purified on Ni beads; also called endorepellin; rhDV
- koff [1]: 0.72 s⁻¹
- Kd [2]: 160 nM
